From patent US20180037651A1 (Janssen / Centocor, published 2018)
Residue numbers refer to the chain shown, from its start. Names and notes keep the numbering of the source.

T1: cyno GPRC5D (cyno, UniProt Q9NZD1 1-343 (human entry))
T1 construct: on transfected HEK293F or Daudi cells; also called cynomolgus monkey GPRC5D
T1 chain: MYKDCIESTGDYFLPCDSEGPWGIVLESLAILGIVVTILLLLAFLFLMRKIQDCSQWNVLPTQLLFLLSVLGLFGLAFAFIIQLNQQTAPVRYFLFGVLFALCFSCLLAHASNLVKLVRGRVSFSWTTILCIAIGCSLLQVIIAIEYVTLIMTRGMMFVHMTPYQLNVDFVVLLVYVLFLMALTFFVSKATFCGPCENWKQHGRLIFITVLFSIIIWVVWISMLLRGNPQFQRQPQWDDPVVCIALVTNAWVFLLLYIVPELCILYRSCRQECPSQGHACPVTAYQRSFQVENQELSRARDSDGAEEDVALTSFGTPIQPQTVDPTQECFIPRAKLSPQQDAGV

T2: murine GPRC5D (murine, UniProt Q9JIL6 1-344)
T2 construct: also called mouse GPRC5D
T2 sequence: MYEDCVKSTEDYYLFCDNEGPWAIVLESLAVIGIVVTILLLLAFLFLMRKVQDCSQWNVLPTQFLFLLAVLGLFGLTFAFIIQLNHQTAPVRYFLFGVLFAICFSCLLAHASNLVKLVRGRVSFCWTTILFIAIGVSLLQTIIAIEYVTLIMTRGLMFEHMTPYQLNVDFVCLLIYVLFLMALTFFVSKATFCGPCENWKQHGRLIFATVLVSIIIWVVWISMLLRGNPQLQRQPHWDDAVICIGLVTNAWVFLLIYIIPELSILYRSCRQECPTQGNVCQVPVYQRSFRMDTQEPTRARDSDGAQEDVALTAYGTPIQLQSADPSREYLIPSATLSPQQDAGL

B1: GCDB53 (bispecific antibody, IgG4, V domains shown)
VH 1: not shown
VL 1: not shown
VH 2: EVQLVESGGGLVQPGGSLRLSCAASGFTFNTYAMNWVRQAPGKGLEWVARIRSKYNNYATYYAASVKGRFTISRDDSKNSLYLQMNSLKTEDTAVYYCARHGNFGNSYVSWFAYWGQGTLVTVSS
VL 2: QTVVTQEPSLTVSPGGTVTLTCRSSTGAVTTSNYANWVQQKPGQAPRGLIGGTNKRAPGTPARFSGSLLGGKAALTLSGVQPEDEAEYYCALWYSNLWVFGGGTKLTVL
notes: IgG4-PAA by Fab arm exchange; CD3 arm also F405L, R409K; also called GC5B465 x CD3B219
B2: GCDB61 (bispecific antibody, IgG4, V domains shown)
VH 1: EVQLVQSGAEVKKPGESLKISCKGSGYSFTSYFIGWVRQMPGKGLEWMGIIYPGKSDTRYSPSFQGQVTISADKSISTAYLQWSSLKASDTAMYYCARVYSFGGRHKALFDYWGQGTLVTVSS
VL 1: EIVLTQSPATLSLSPGERATLSCRASQSVSSYLAWYQQKPGQAPRLLIYDASNRATGIPARFSGSGSGTDFTLTISSLEPEDFAVYYCQQRSNWPLTFGQGTKVEIK
VH 2: B1 VH 2
VL 2: B1 VL 2
notes: IgG4-PAA by Fab arm exchange; CD3 arm also F405L, R409K; also called GC5B483 x CD3B219
B3: GC5B163 (antibody, V domains shown)
VH: B2 VH 1 with F33W, K55D
VL: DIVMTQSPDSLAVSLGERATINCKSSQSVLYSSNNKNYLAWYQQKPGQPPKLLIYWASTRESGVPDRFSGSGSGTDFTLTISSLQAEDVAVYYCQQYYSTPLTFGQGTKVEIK
notes: GC5H36+PH9L2
B4: GC5B251 (antibody, IgG1, V domains shown)
VH: QVQLVQSGAEVKKPGSSVKVSCKASGGTFSSYGISWVRQAPGQGLEWMGGIIPIFGNINYAQKFQGRVTITADESTSTAYMELSSLRSEDTAVYYCARVSRRFKRFAYYFDYWGQGTLVTVSS
VL: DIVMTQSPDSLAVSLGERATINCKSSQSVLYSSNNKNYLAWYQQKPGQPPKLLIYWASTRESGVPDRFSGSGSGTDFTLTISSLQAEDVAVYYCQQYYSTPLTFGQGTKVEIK
notes: human IgG4PAA
B5: GC5B164 (antibody, IgG1, V domains shown)
VH: B2 VH 1 with F33W, K55D
VL: B2 VL 1
notes: GC5H36+PH9L3 (L6); human IgG4PAA
B6: GC5B252 (antibody, V domains shown)
VH: B4 VH
VL: B2 VL 1
notes: GC5H42+PH9L3
B7: GC5B332 (antibody, IgG1, V domains shown)
VH: EVQLVQSGAEVKKPGESLKISCKGSGYSFTSYWIGWVRQMPGKGLEWMGIIYPGDSDTRYSPSFQGQVTISADKSISTAYLQWSSLKASDTAMYYCARIGFYGRSFRIFDYWGQGTLVTVSS
VL: B2 VL 1
notes: GC5H35+PH9L3 (L6); human IgG4PAA
B8: GCDB72 (bispecific antibody, IgG4, V domains shown)
VH 1: QVQLVQSGAEVKKPGASVKVSCKASGYSFTGYTMNWVRQAPGQGLEWMGLINPYNSDTNYAQKLQGRVTMTTDTSTSTAYMELRSLRSDDTAVYYCARVALRVALDYWGQGTLVTVSS
VL 1: DIQMTQSPSSLSASVGDRVTITCKASQNVATHVGWYQQKPGKAPKRLIYSASYRYSGVPSRFSGSGSGTEFTLTISNLQPEDFATYYCQQYNRYPYTFGQGTKLEIK
VH 2: B1 VH 2
VL 2: B1 VL 2
notes: IgG4-PAA by Fab arm exchange; CD3 arm also F405L, R409K; also called GC5B596 x CD3B219
B9: GCDB35 (bispecific antibody, IgG4)
heavy 1: not shown
VL: B2 VL 1
heavy 2: EVQLVESGGGLVQPGGSLRLSCAASGFTFNTYAMNWVRQAPGKGLEWVARIRSKYNNYATYYAASVKGRFTISRDDSKNSLYLQMNSLKTEDTAVYYCARHGNFGNSYVSWFAYWGQGTLVTVSSASTKGPSVFPLAPCSRSTSESTAALGCLVKDYFPEPVTVSWNSGALTSGVHTFPAVLQSSGLYSLSSVVTVPSSSLGTKTYTCNVDHKPSNTKVDKRVESKYGPPCPPCPAPEAAGGPSVFLFPPKPKDTLMISRTPEVTCVVVDVSQEDPEVQFNWYVDGVEVHNAKTKPREEQFNSTYRVVSVLTVLHQDWLNGKEYKCKVSNKGLPSSIEKTISKAKGQPREPQVYTLPPSQEEMTKNQVSLTCLVKGFYPSDIAVEWESNGQPENNYKTTPPVLDSDGSFLLYSKLTVDKSRWQEGNVFSCSVMHEALHNHYTQKSLSLSLGK
light: QTVVTQEPSLTVSPGGTVTLTCRSSTGAVTTSNYANWVQQKPGQAPRGLIGGTNKRAPGTPARFSGSLLGGKAALTLSGVQPEDEAEYYCALWYSNLWVFGGGTKLTVLGQPKAAPSVTLFPPSSEELQANKATLVCLISDFYPGAVTVAWKADSSPVKAGVETTTPSKQSNNKYAASSYLSLTPEQWKSHRSYSCQVTHEGSTVEKTVAPTECS
B10: GC5B590 (antibody, V domains shown)
VH: QVTLKESGPVLVKPTETLTLTCTVSGFSLTSYNVHWIRQPPGKALEWLAVIWAGGSTNYNSALKSRLTISKDTSKSQVVLTMTNMRAEDTATYYCARDGIRLRFAYWGQGTLVTVSS
VL: EIVMTQSPATLSVSPGERATLSCKASQNVATHVGWYQQKPGQAPRLLIYSASYRYSGIPARFSGSGSGTEFTLTISSLQSEDFAVYYCQQYNRYPYTFGQGTKLEIK
notes: GC5B540 PTM variant
B11: GC5B594 (antibody, V domains shown)
VH: B10 VH with G99A
VL: B10 VL
notes: GC5B540 PTM variant
B12: GC5B592 (antibody, V domains shown)
VH: B10 VH with K64M, G99A
VL: B10 VL
notes: GC5B540 PTM variant

The binders below were run against T3, human GPRC5D (human, UniProt Q9NZD1 1-345) (assay: FACS binding to plasma cells in MM patient MM303BM bone marrow MNCs).
T3 construct: on transfected HEK293/RBL cells or endogenous on myeloma cells (H929, MM1R, OPM2, LP1, JIM3, patient plasma cells); also called G protein-coupled receptor class C group 5 member D; hGPRC5D
T3 sequence (Q9NZD1 whole entry): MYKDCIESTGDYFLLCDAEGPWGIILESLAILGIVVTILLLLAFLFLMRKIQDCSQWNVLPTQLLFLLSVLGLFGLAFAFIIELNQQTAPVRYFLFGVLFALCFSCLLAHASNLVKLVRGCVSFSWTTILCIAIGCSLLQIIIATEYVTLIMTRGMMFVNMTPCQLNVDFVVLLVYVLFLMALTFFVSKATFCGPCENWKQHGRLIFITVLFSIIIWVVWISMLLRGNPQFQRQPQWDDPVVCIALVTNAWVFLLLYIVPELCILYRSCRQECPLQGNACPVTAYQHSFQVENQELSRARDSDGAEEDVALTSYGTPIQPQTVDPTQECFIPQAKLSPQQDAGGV

Binder	EC50 [nM]
B1	3.98
B2	5.53

These binders were tested against T3, human GPRC5D (assay: FACS binding to plasma cells in MM patient MM305BM bone marrow MNCs).

Binder	EC50 [nM]
B1	10.2
B2	6.93

Molecular target: T1, cyno GPRC5D
Assay: FACS, cyno GPRC5D cells, 1 ug/ml
Description: Whole cell phage panning was completed using the human GPRC5D cells as antigen, as described above. […] These mAbs were initially evaluated for binding to cyno GPRC5D using FACS. […] Briefly, FACS screening was performed by normalizing protein concentration to 1 ug/ml and 100 ul of protein was mixed with 200,000 cells per well. The mAb was allowed to incubate with cells for 1 hour at 4° C. The cells were then washed three times with PBS and 0.2% FBS. […] The cells and secondary antibody were incubated for 1 hour at 4° C. The cells were then washed three times with PBS and 0.2% FBS. The cells were washed again using PBS and 0.2% FBS and then analyzed on FACSarry.

Binder	MFI [MFI]
B3	22000
B4	213000
B5	122000
B6	63300
B7	192000

Molecular target: T1, cyno GPRC5D
Assay: cell-based or functional assay

Binder	T-cell redirection cytotoxicity EC50, cyno GPRC5D HEK cells [nM]
B1	0.36
B8	3.41
B2	1.22

The binders below were run against T3, human GPRC5D (assay: cell-based or functional assay).

Binder	T-cell redirection cytotoxicity EC50, human GPRC5D HEK cells [nM]
B1	0.08
B2	0.03

Molecular target: T1, cyno GPRC5D
Assay: cell-based or functional assay
Remark: another data set of the same source

Binder	T cell mediated target cell killing, Cyno GPRC5D EC50 [nM]
B9	4.65

The binders below were run against T3, human GPRC5D (assay: FACS, human GPRC5D HEK293F cells).

Binder	MFI [MFI]
B3	840
B4	11400
B5	12700
B6	1500
B7	13300

Molecular target: T1, cyno GPRC5D
Assay: FACS, cyno GPRC5D HEK293F cells

Binder	MFI [MFI]
B3	7600
B4	74500
B5	78700
B6	22000
B7	107000

What follows are binders tested against T2, murine GPRC5D (assay: FACS, murine GPRC5D).

Binder	MFI [MFI]
B1	2660
B8	481
B2	3550

These binders were tested against T3, human GPRC5D (assay: FACS, human GPRC5D cells).

Binder	binding result
B10	binds
B11	binds
B12	binds
